Results reported in KR20230171885A (dated 2023).

Biological target: T1, 재조합 인간 TIGIT 단백질 (Acro Biosystems) (human, UniProt Q495A1 22-141)
T1 construct: Bought recombinant protein; also called recombinant human TIGIT; TIGIT 항원
T1 sequence: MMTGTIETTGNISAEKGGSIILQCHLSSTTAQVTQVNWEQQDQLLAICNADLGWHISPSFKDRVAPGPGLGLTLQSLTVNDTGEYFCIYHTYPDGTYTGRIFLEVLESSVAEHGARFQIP
Assay: SPR, Biacore T200 multi-cycle kinetics, 25C; antibody captured on anti-human IgG CM5 chip, recombinant human TIGIT as analyte; 1:1 model

Kd: 0.884 nM | koff: 0.00158 s⁻¹ | kon: 1.78e+06 M⁻¹ s⁻¹
B1: 항-TIGIT 항체 7A6 (7A6_VH3/Vk5) (antibody, human IgG1, kappa, V domains shown)
VH: QVQLQESGPGLVKPSQTLSLTCTVTGYSITSDYAWNWIRQPPGKGLEWMGYISYSGSARYNPSLKSRVTISRDTSKNQFSLKLSSVTAEDTATYYCARKGYPAYFAYWGQGTLVTVSS
VL: DIQMTQSPSSLSASVGDRVSITCKASQDVSTAVAWYQQKPGQAPRLLIYSASYRYTGVPDRFSGSGSGTDFTLTISSLQPEDFATYYCQHHYSTPYTFGQGTKLEIKR
notes: Parental IgG1/kappa antibody without RS15; also called 7A6 VH3/Vκ5; Parental Ab (7A6)
